Experiment [1] has as its target TGBp1-cYFP (cowpea mild mottle virus triple gene block protein 1 fused to the C-terminal half of YFP) (cowpea mild mottle virus (isolate CPMMV_AH_SZ)). Kind of experiment: split reporter (BiFC, NanoBiT); BiFC of the TGBp1 and TGBp3 YFP halves with TGBp2-Flag co-expressed in N. benthamiana leaves; confocal microscopy 48 h after infiltration; mean intensity of whole images by ImageJ.

Experiment [2] has the same target. The experiment can be described thus: split reporter (BiFC, NanoBiT); BiFC: nYFP and cYFP fusions co-expressed by agroinfiltration in N. benthamiana leaves; YFP signal by confocal microscopy 48 h after infiltration; mean intensity of whole images by ImageJ.

Among the data in PMC9051516 are mean fluorescence intensity of the BiFC signal, with TGBp2-Flag co-expressed and mean fluorescence intensity of the BiFC signal, without TGBp2-Flag values, retold here.

In experiment [1], “TGBp3-nYFP (cowpea mild mottle virus triple gene block protein 3 fused to the N-terminal half of YFP) (natural protein)” yielded a mean fluorescence intensity of the BiFC signal, with TGBp2-Flag co-expressed of 95.9. In experiment [2], this substance came in with a mean fluorescence intensity of the BiFC signal, without TGBp2-Flag of 75.7.
